The nature of this data set: yeast display, Sf9 membrane polyspecificity reagent, FACS + sequencing; frameworks hold sequencing errors. The gist of the method: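 Genes from sorted yeast were amplified by colony PCR, read by MiSeq 2 × 250 sequencing and filtered on CDR length. These cells carried a synthetic nanobody library in Saccharomyces cerevisiae BJ5465 and were sorted by FACS into low and high (top ~1%) gates on anti-HA and streptavidin fluorescence. Polyreactivity is labelled according to the gate of origin.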
On to “QVQLVESGGGLVQAGGSLRLSCAASGFIFWKNAMGWYRQAPGKERELVAAISWSGGRTYYADSVKGRFTISRDNAKNTFYLQINSLKPEETAVYYCNAAGRYKPGAPYDYWGQGTQVTVSS”, for which the “polyreactivity (PSR sort gate)” value is reported as “low polyreactivity”.

Consider “QVQLVESGGGLVQAGGSLRLSCAASGFIFWLYAMGRYRQAPGKERELVAAISNGGSTNYADSVKGRFTISRDNAKNTVYLQMNSLKPEDTAVYYCAAKFPRRFYWYDYWGQGTQVTVSS”, for which the “polyreactivity (PSR sort gate)” value is on record as “high polyreactivity”.

Regarding “QVQLVESGGGLVQAGGSLRLSCAASGFIFWQYTMGWYRQAPGKERELVAAITWRGTRTYADSVKGRFTISRDNAKNTVYLQMNSLKPEDTAVYYCAAREYYHGPDGGYYGYDYWGQGTQVTVSS”, the “polyreactivity (PSR sort gate)” value is given as “high polyreactivity”.

In the case of “QVQLVESGGGLVQAGGSLRLSCAASGFIFWRYAMGWYRQAPGKERELVASITSTGGSTYYADSVKGRFTISRDNAKNTVYLQMNSLKPEDTAVYYCAADTFVWADWSWHYYWGQGTQVTVSS”, the “polyreactivity (PSR sort gate)” value is listed as “high polyreactivity”.

As to “QVQLVESGGGLVQAGGSLRLSCAASGFIFWYNAMGWYRQAPGKERELVATISVASTYADSVKGRFTISRDNAKNTVYLQMNSLKPEDTAVYYCAADWAGWEGYRMDYWGQGTQVTVSS”, the “polyreactivity (PSR sort gate)” value was “low polyreactivity”.

With “QVQLVESGGGLVQAGGSLRLSCAASGFIFWYYAMGWYRQAPGKERELVAGITSGGSTNYADSVKGRFTISRDNAKNSVYLQMNSLKPEDTAVYYCAAAPYGGFGRGYDYWGQGTQVTVSS”, the “polyreactivity (PSR sort gate)” value was “high polyreactivity”.

Consider “QVQLVESGGGLVQAGGSLRLSCAASGFIFWYYAMGWYRQAPGKERELVARITRIGGRTYYADSVKGRFTISRDNAKNTVYLQMNSLKPEDTAVYYCAKDVDKYRYDYWGQGTQVTVSS”, for which the “polyreactivity (PSR sort gate)” value was “high polyreactivity”.

Turning to “QVQLVESGGGLVQAGGSLRLSCAASGFIFYAYAMGWYRQAPGKERELVAAITGSGGRTYYADSVKGRFTISRDNAKNTVYLQMNSLKPEDTAVYYCAAYYTSGGSRTYDYWGQGTQVTVSS”, the “polyreactivity (PSR sort gate)” value is “high polyreactivity”.

Turning to “QVQLVESGGGLVQAGGSLRLSCAASGFIFYAYAMGWYRQAPGKERELVAAITSSGSRTYYADSVKGRFTISRDNAKNTVYLQMNSLKPEDTAVYYCNARSGGVRYSNIGTEKYDYWGQGTQVTVSS”, the “polyreactivity (PSR sort gate)” value is reported as “low polyreactivity”.

For the sequence “QVQLVESGGGLVQAGGSLRLSCAASGFIFYAYAMGWYRQAPGKERELVAGISDSGASTYADSVKGRFTISRDNAKNTVYLQMNSLKPEDTAVYYCATTGYLSTKVYDEYGYWGQGTQVTVSS”, the “polyreactivity (PSR sort gate)” value is reported as “low polyreactivity”.

Take “QVQLVESGGGLVQAGGSLRLSCAASGFIFYDYAMGWYRQAPGKEREMVAGITDSGGSTSYADSVKGRFTISRDNAKNTVYLQMNSLKPEDTAVYYCAADNYVRAGINYDYWGQGTQVTVSS”: the “polyreactivity (PSR sort gate)” value is recorded as “low polyreactivity”.

For “QVQLVESGGGLVQAGGSLRLSCAASGFIFYDYDMGWYRPAPGKERELVAAITYSGGSTYYADSVKGRFTISRDNAKNTVYLQMNSLKPEDTAVYYCAAVKSRYAEAVDYYYWGQGTQVTVSS”, the “polyreactivity (PSR sort gate)” value is on record as “low polyreactivity”.

Consider “QVQLVESGGGLVQAGGSLRLSCAASGFIFYDYDMGWYRQAPGKERELVAAITYSGGSTYYADSVKGRFTISRDNAKNSVYLQMNSLKPEDTAVYYCAAVKSRYAEAVDYYYWGQGTQVNVSS”, for which the “polyreactivity (PSR sort gate)” value was “low polyreactivity”.

Consider “QVQLVESGGGLVQAGGSLRLSCAASGFIFYEYDMGWYRQAPGKEGELVAAISVSGGSTYYADSVKGRFTISRDNAKNTVYLQMNSLKPEDTAVYYCAVFLPDYGRYDYWGQGTQVTVSS”, for which the “polyreactivity (PSR sort gate)” value was “low polyreactivity”.

For the sequence “QVQLVESGGGLVQAGGSLRLSCAASGFIFYFYAMGWYRQAPGKERELVAAISYNGGSTYYADSVKGRFTISRDNAKNTVYLQMNSLKPEDTAVYYCNAVRNYAWGKMYSWGQGTQVTVSS”, the “polyreactivity (PSR sort gate)” value is on record as “high polyreactivity”.

Regarding “QVQLVESGGGLVQAGGSLRLSCAASGFIFYKNAMGWYRQAPGKERELVAAINWSGGSTYYADSVKGRFTISRDNAKNTVYLQMNSLKPEDTAVYYCAVVVYSGYRHYYWGQGTQVTVSS”, the “polyreactivity (PSR sort gate)” value is “high polyreactivity”.

“QVQLVESGGGLVQAGGSLRLSCAASGFIFYKYAMGWYRQAPGKERELVAAISRSGSTYYADSVKGRFTISRDNAKNTVYLQMNSLKPDDTAVYYCNALTYFKRSEYYWGQGTQVTVSS”: the “polyreactivity (PSR sort gate)” value is listed as “high polyreactivity”.

For the sequence “QVQLVESGGGLVQAGGSLRLSCAASGFIFYKYAMGWYRQAPGKERELVARISISGGRTYYADSVKGRFPISRDNAKNTVYLQMNSLKPEDTAVYYCATSPWWYGYAAYGMDYWGQGTQVTVSS”, the “polyreactivity (PSR sort gate)” value is recorded as “low polyreactivity”.

Regarding “QVQLVESGGGLVQAGGSLRLSCAASGFIFYLNAMGWYRQAPGKERELVAAISRGGTTYYADSVKGRFTISRDNAKNTVYLQMNSLIPEDTAVYYCAAKDKRWYSRYYWTGYDYWGQGTQVTVSS”, the “polyreactivity (PSR sort gate)” value is listed as “high polyreactivity”.

Turning to “QVQLVESGGGLVQAGGSLRLSCAASGFIFYPYAMGWYRQAAGKERELVASIRRSTASTYYADSVKGRFTISRDNAKNTVYLQMNSLKPEDTAVYYCAARYRSYPKEYDYWGQGTEVTVSS”, the “polyreactivity (PSR sort gate)” value is “high polyreactivity”.

Turning to “QVQLVESGGGLVQAGGSLRLSCAASGFIFYPYAMGWYRQAPGKERELVAAITGSGGSTYYADSVKGRFTISRDNAKNTVYLQMNSLKPEDTAVYYCAAYYGPRKMDYWGQGTQVTVSS”, the “polyreactivity (PSR sort gate)” value is given as “high polyreactivity”.

As to “QVQLVESGGGLVQAGGSLRLSCAASGFIFYPYAMGWYRQAPGKERELVAVITSGGRTYYADSVKGRFTISRDNAKNTVYLQMNSLKPEDTAVYYCAARYGRIQWKANWPEYGYWGQGTQVTVSS”, the “polyreactivity (PSR sort gate)” value is reported as “low polyreactivity”.

As for “QVQLVESGGGLVQAGGSLRLSCAASGFIFYPYVMGWYRQAPGKERELVATIRTDGRTSYADSVKGRFTISRDNAKNTVYLQMNSLKPEDTAVYYCNTKYVRYYRRYDSWGQGTQVTVSS”, the “polyreactivity (PSR sort gate)” value is “high polyreactivity”.

Regarding “QVQLVESGGGLVQAGGSLRLSCAASGFIFYQYAMGWYRQAPGKERELVAAISRRGGGTYYADSVKGRFTISRDNAKNTVYLQMNSLKPEDTAVYYCNTDRLARITFGGYDYWGQGTQVTVSS”, the “polyreactivity (PSR sort gate)” value is reported as “high polyreactivity”.

Regarding “QVQLVESGGGLVQAGGSLRLSCAASGFIFYRNAMGWYRQAPGKERELVAAISGSGGRTYYADSVNGRFTISRDNAKNTVYLQMNSLNPEDTAVYYCNAGLLYRGEYDYWGQGTQVTVSS”, the “polyreactivity (PSR sort gate)” value is reported as “high polyreactivity”.

As for “QVQLVESGGGLVQAGGSLRLSCAASGFIFYRNTMGWYRQAPGKERELDAAISWSGARTYYADSVKGRFTISRDNAKNTVYLQMNSLKPEDTAVYYCNTVFYLHSTTTNGDYWGQGTQVTVSS”, the “polyreactivity (PSR sort gate)” value is listed as “high polyreactivity”.

Consider “QVQLVESGGGLVQAGGSLRLSCAASGFIFYRWYALGWYIQAPGKERELVAAIRSGGSTYYADSVKGRFTISRDNAKNTVYLQMNSLKPEDTAVYYCSTSGPQYYSRHFDYWGEGTQVTVSS”, for which the “polyreactivity (PSR sort gate)” value is given as “low polyreactivity”.

As to “QVQLVESGGGLVQAGGSLRLSCAASGFIFYRYAMGWYRPAPGKERELVAAISRSGGTTYYADSVKGRFTISRDNAKNTVYLQMNSLKPEDTAVYYCNVKRGTIGGYYYWGQGTQVTVSS”, the “polyreactivity (PSR sort gate)” value is “high polyreactivity”.

In the case of “QVQLVESGGGLVQAGGSLRLSCAASGFIFYRYAMGWYRQAPGKERELVAAISKSGSSTYYADSVKGRFTISRDNAKNTVYLQMNSLKPEDTAVYYCARDRQSRSLLEYDYWGQGTQVTVSS”, the “polyreactivity (PSR sort gate)” value is on record as “low polyreactivity”.

For “QVQLVESGGGLVQAGGSLRLSCAASGFIFYRYAMGWYRQAPGKERELVAAISWGGGSTTYYADSVKGRFTISRDNAKNTVYLQMNRLKPEDTAVYYCAAYIGKGYGSEYYYWGQGTQVTVSS”, the “polyreactivity (PSR sort gate)” value was “low polyreactivity”.

For the origin of these results see the nanobody polyreactivity screen of Harvey et al. (2022).
